The Kd is the concentration at which binding is half-saturated.

The results in this text go back to patent publication WO2009080764A2 (dated 2009).

Assay [1] deals with T1, human serum albumin (HSA) (human, UniProt P02768 25-609).
T1 construct: also called monomeric HSA
Kind of assay: SPR Biacore T100, periplasmic extract over immobilized human serum albumin, pH 7 and pH 5.

In assay [2] the target is T2, shFcRn-GST (GST-fused soluble human FcRn, heterodimeric) (human, UniProt P55899 24-290; P61769 21-119).
T2 construct: Eukaryotically expressed; immobilized by amine coupling on CM5 chips or used in ELISA; also called GST-fused shFcRn; not shown: GST fusion partner
Briefly: SPR Biacore 3000, Nb 500-15 nM over immobilized shFcRn-GST, pH 7.4, 1:1 Langmuir model. Background: Surface plasmon resonance follows binding to a sensor surface in real time, without labels.

For assay [3], the target named is T2, shFcRn-GST (GST-fused soluble human …). Briefly: SPR Biacore 3000, Nb 500-15 nM over immobilized shFcRn-GST, pH 6.0, 1:1 Langmuir model.
Assay [4] concerns the target T3, human beta2-microglobulin (human, UniProt P61769 21-119).
T3 construct: also called b2-microglobulin; soluble human b2-microglobulin
Kind of assay: ELISA on coated b2-microglobulin from human urine, pH 5.1. (In an ELISA, binding on a coated surface is turned into a signal by an enzyme label.)

The target in assay [5] is T2, shFcRn-GST (GST-fused soluble human …). Briefly: SPR Biacore 3000, immobilized shFcRn-GST, pH 6.0, equilibrium responses in a steady-state affinity model.
Assay [6] shares this target. Kind of assay: SPR Biacore 3000, immobilized shFcRn-GST, pH 7.4, equilibrium responses in a steady-state affinity model.
Assay [7] addresses shFcRn (intact soluble human FcRn, heavy chain and beta2-microglobulin) (human) (UniProt P55899). Briefly: ELISA pH 5.1, purified nanobody 0-50 nM on coated shFcRn, anti-myc detection.

T2 sequence (P55899 24-290, chain 1 of 2): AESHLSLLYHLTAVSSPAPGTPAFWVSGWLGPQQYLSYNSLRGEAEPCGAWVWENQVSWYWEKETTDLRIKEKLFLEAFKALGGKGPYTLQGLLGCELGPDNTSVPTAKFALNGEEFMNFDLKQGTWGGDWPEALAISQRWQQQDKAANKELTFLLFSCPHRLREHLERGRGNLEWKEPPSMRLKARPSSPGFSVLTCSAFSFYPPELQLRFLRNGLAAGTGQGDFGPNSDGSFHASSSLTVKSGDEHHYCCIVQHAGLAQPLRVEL
T2 sequence (P61769 21-119, chain 2 of 2): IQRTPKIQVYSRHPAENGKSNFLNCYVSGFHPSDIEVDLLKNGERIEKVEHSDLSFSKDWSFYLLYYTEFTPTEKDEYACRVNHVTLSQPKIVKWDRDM
T3 sequence (P61769 21-119 limits assumed): as the sequence (P61769 21-119, chain 2 of 2) above
Sequence of shFcRn (intact soluble human FcRn, heavy chain and beta2-microglobulin) (human) (P55899 other isoform, or with tags, fused parts or gaps, chain 1 of 2): as the sequence (P55899 24-290, chain 1 of 2) above, with C48S, C251S counted along it
Sequence of shFcRn (intact soluble human FcRn, heavy chain and beta2-microglobulin) (human) (P61769 21-119, chain 2 of 2, further chain): as the sequence (P61769 21-119, chain 2 of 2) above

B1: 4A9 (VHH)
VHH: EVQLVESGGGLVQAGGSLRLSCEASGFTLDYSGVGWFRQAPGKERELVSCISRGGDRAGYANSVKGRFTMSRDNAKNILYLQMNSLKPEDTAVYYCAATHSGSGCYDGAIDYWGKGTLVTVSS
Take B1: the “fold difference in off rate, pH 5 against pH 7” value in assay [1] is 0.54 fold.

B2: Nb 218-H4 (VHH)
VHH: EVQLVESGGALVQAGGSLRLSCVASGRTFNSIGMGWFRQAPGKERDFIGGITWDGRDTYYTDSVKGRFTISRDNAKNTVYLQMNSLKPWDTAVYYCAANRDPWIATSYQDYAYWGQGTQVTVSS
notes: Anti-FcRn Nanobody, family V; detected through a myc tag; also called monovalent nanobody
In the case of B2, the Kd is approximately 52.5 nM in assay [2], approximately 21.2 nM in assay [3], 22 nM in assay [5] and 55.6 nM in assay [6]. For the same molecule, the binding result in assay [4] is reported as “no binding (tested: 0-50 nM)”.

B3: 218-H4_20GS_218-H4 (bivalent Nb 218-H4) (VHH)
chain: EVQLVESGGALVQAGGSLRLSCVASGRTFNSIGMGWFRQAPGKERDFIGGITWDGRDTYYTDSVKGRFTISRDNAKNTVYLQMNSLKPWDTAVYYCAANRDPWIATSYQDYAYWGQGTQVTVSSGGGGSGGGGSGGGGSGGGGSEVQLVESGGALVQAGGSLRLSCVASGRTFNSIGMGWFRQAPGKERDFIGGITWDGRDTYYTDSVKGRFTISRDNAKNTVYLQMNSLKPWDTAVYYCAANRDPWIATSYQDYAYWGQGTQVTVSS
B3: in assay [4], the binding result was “no binding (tested: 0-50 nM)”. Further, the fold improvement in binding against the monovalent nanobody in assay [7] was 10 fold.
